Data from US9951306B2, “Catalase in growth media” (EUCODIS BIOSCIENCE GMBH, priority 2012, dated 2018).

Key:
[1] = system: Bacillus subtilis ATCC 6633; test: Agar diffusion test: inhibition by hydrogen peroxide on TSA-LT agar plates with additives; format: cell-based; conditions: 10 μl on paper disc; for Inhibition on gamma-irradiated agar plates: gamma-irradiated 20.5 kGy; for Inhibition on agar plates: not irradiated
[2] = system: Bacillus subtilis ATCC 6633; test: Growth promotion test: colonies on TSA-LT agar plates treated with hydrogen peroxide; format: cell-based; conditions: for Colonies on agar: no catalase, hydrogen peroxide as in Example 3; for Colonies on gamma-irradiated agar / Colonies on agar plates: 300 μl 1% hydrogen peroxide (100 ppm in medium); for Colonies on gamma-irradiated agar: gamma-irradiated 20.5 kGy; for Colonies on agar plates: not irradiated
[3] = 8000 international units of catalase per plate; cited from earlier work
[4] = sodium pyruvate 2.00 g/l together with sodium thiosulfate 0.05 g/l, 2% hydrogen peroxide
[5] = sodium pyruvate 2.00 g/l together with sodium thiosulfate 0.05 g/l, 5% hydrogen peroxide
[6] = sodium pyruvate 2.00 g/l together with sodium thiosulfate 0.05 g/l, 8% hydrogen peroxide
[7] = sodium pyruvate 2.00 g/l together with sodium thiosulfate 0.05 g/l, 10% hydrogen peroxide
[8] = sodium pyruvate 2.00 g/l together with sodium thiosulfate 0.05 g/l
[9] = 80 U/plate, 2% hydrogen peroxide
[10] = 80 U/plate, 5% hydrogen peroxide
[11] = 80 U/plate, 8% hydrogen peroxide
[12] = 80 U/plate, 10% hydrogen peroxide
[13] = 150 U/plate, 2% hydrogen peroxide
[14] = 150 U/plate, 5% hydrogen peroxide
[15] = 150 U/plate, 8% hydrogen peroxide
[16] = 150 U/plate, 10% hydrogen peroxide
[17] = 300 U/plate, 2% hydrogen peroxide
[18] = 300 U/plate, 5% hydrogen peroxide
[19] = 300 U/plate, 8% hydrogen peroxide
[20] = 300 U/plate, 10% hydrogen peroxide

CC(=O)C(=O)[O-].[Na+] [Sodium pyruvate, reference compound]
Inhibition on gamma-irradiated agar plates [1, 4]: 0 mm
Inhibition on agar plates [1, 4]: 0 mm
Inhibition on gamma-irradiated agar plates [1, 5]: 1 mm
Inhibition on agar plates [1, 5]: 1 mm
Inhibition on gamma-irradiated agar plates [1, 6]: 2 mm
Inhibition on agar plates [1, 6]: 2 mm
Inhibition on gamma-irradiated agar plates [1, 7]: 3 mm
Inhibition on agar plates [1, 7]: 2.5 mm
growth in agar plates with hydrogen peroxide ([2]; 0.2 g/l sodium pyruvate and 0.005 g/l sodium thiosulfate without catalase): did not support growth
Colonies on agar ([2]; sodium pyruvate 0.20 g/l with sodium thiosulfate 0.005 g/l): 0 CFU
Colonies on gamma-irradiated agar [2, 8]: 229 CFU
Colonies on agar plates [2, 8]: 161 CFU
Colonies on agar ([2]; sodium pyruvate 2.00 g/l with sodium thiosulfate 0.05 g/l): 125 CFU

catalase
recovery [3]: 60%

B1: Catalase from bovine liver: Catalase prepared from commercial product C9322 (Sigma), dissolved in 0.1 M potassium phosphate pH 7.0; comparator (protein, UniProt P00432 2-527, looked up)
Catalase: ADNRDPASDQMKHWKEQRAAQKPDVLTTGGGNPVGDKLNSLTVGPRGPLLVQDVVFTDEMAHFDRERIPERVVHAKGAGAFGYFEVTHDITRYSKAKVFEHIGKRTPIAVRFSTVAGESGSADTVRDPRGFAVKFYTEDGNWDLVGNNTPIFFIRDALLFPSFIHSQKRNPQTHLKDPDMVWDFWSLRPESLHQVSFLFSDRGIPDGHRHMNGYGSHTFKLVNANGEAVYCKFHYKTDQGIKNLSVEDAARLAHEDPDYGLRDLFNAIATGNYPSWTLYIQVMTFSEAEIFPFNPFDLTKVWPHGDYPLIPVGKLVLNRNPVNYFAEVEQLAFDPSNMPPGIEPSPDKMLQGRLFAYPDTHRHRLGPNYLQIPVNCPYRARVANYQRDGPMCMMDNQGGAPNYYPNSFSAPEHQPSALEHRTHFSGDVQRFNSANDDNVTQVRTFYLKVLNEEQRKRLCENIAGHLKDAQLFIQKKAVKNFSDVHPEYGSRIQALLDKYNEEKPKNAVHTYVQHGSHLSAREKANL
Inhibition on gamma-irradiated agar plates [1, 9]: 3.5 mm
Inhibition on agar plates [1, 9]: 1 mm
Inhibition on gamma-irradiated agar plates [1, 10]: 7 mm
Inhibition on agar plates [1, 10]: 5 mm
Inhibition on gamma-irradiated agar plates [1, 11]: 8 mm
Inhibition on agar plates [1, 11]: 6 mm
Inhibition on gamma-irradiated agar plates [1, 12]: 8.5 mm
Inhibition on agar plates [1, 12]: 7 mm
Inhibition on gamma-irradiated agar plates [1, 13]: 2 mm
Inhibition on agar plates [1, 13]: 0.5 mm
Inhibition on gamma-irradiated agar plates [1, 14]: 6 mm
Inhibition on agar plates [1, 14]: 4 mm
Inhibition on gamma-irradiated agar plates [1, 15]: 7.5 mm
Inhibition on agar plates [1, 15]: 5 mm
Inhibition on gamma-irradiated agar plates [1, 16]: 8 mm
Inhibition on agar plates [1, 16]: 6 mm
Inhibition on gamma-irradiated agar plates [1, 17]: 1.5 mm
Inhibition on agar plates [1, 17]: 0 mm
Inhibition on gamma-irradiated agar plates [1, 18]: 5.5 mm
Inhibition on agar plates [1, 18]: 2 mm
Inhibition on gamma-irradiated agar plates [1, 19]: 6.5 mm
Inhibition on agar plates [1, 19]: 4 mm
Inhibition on gamma-irradiated agar plates [1, 20]: 7.5 mm
Inhibition on agar plates [1, 20]: 4.5 mm
Colonies on gamma-irradiated agar ([2]; 80 U/plate): 0 CFU
Colonies on agar plates ([2]; 80 U/plate): 0 CFU
Colonies on gamma-irradiated agar ([2]; 150 U/plate): 0 CFU
Colonies on agar plates ([2]; 150 U/plate): 0 CFU
Colonies on gamma-irradiated agar ([2]; 300 U/plate): 0 CFU
Colonies on agar plates ([2]; 300 U/plate): 0 CFU
recovery of the applied colony forming units ([2]; highest tested concentration of 300 U/plate, not irradiated medium): 0%
